Data taken from patent publication US20070093443.

Legend:
[1] = target: T1, cynomolgus monkey complement C2 (in plasma of treated monkeys), G8F3W0
T1 chain: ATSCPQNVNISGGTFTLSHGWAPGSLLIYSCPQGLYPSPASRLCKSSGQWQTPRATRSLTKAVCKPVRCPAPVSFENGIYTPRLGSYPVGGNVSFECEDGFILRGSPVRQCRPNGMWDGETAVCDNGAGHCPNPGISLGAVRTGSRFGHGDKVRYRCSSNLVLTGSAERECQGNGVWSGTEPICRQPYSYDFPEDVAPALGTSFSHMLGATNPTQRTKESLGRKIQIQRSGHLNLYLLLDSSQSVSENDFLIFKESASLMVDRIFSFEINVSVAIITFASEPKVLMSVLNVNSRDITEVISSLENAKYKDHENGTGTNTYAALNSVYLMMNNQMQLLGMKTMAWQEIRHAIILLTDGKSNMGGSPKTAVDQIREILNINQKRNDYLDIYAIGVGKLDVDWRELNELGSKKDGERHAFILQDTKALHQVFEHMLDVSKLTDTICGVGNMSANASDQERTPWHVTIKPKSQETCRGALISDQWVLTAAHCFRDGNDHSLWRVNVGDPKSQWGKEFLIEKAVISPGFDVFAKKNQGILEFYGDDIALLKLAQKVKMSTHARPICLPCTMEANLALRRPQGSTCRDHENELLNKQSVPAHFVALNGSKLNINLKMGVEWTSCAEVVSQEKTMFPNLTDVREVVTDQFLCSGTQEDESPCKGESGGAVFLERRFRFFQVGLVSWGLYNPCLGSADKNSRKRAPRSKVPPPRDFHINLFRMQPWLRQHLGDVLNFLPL

[2] = target: Complement C5 (human)
Chain of Complement C5 (human) (chain, as listed by the source, chain 1 of 2): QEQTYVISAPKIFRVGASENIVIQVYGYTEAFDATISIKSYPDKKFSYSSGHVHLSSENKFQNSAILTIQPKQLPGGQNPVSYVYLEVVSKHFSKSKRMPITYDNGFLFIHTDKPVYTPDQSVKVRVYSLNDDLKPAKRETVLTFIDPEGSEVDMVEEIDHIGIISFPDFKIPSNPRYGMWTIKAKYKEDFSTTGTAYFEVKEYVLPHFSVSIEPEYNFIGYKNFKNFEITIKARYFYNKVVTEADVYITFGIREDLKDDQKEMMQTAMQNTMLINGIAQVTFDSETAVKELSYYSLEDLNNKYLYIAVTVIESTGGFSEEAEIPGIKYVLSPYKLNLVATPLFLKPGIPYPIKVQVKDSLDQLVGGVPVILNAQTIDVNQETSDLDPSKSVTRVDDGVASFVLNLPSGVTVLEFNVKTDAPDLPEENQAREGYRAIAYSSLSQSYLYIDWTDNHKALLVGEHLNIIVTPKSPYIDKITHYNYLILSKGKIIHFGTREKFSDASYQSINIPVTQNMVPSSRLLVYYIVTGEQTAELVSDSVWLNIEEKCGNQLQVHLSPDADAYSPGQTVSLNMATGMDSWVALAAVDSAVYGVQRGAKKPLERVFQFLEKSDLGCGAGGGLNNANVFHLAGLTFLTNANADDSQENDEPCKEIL
Chain of Complement C5 (human) (chain, as listed by the source, chain 2 of 2): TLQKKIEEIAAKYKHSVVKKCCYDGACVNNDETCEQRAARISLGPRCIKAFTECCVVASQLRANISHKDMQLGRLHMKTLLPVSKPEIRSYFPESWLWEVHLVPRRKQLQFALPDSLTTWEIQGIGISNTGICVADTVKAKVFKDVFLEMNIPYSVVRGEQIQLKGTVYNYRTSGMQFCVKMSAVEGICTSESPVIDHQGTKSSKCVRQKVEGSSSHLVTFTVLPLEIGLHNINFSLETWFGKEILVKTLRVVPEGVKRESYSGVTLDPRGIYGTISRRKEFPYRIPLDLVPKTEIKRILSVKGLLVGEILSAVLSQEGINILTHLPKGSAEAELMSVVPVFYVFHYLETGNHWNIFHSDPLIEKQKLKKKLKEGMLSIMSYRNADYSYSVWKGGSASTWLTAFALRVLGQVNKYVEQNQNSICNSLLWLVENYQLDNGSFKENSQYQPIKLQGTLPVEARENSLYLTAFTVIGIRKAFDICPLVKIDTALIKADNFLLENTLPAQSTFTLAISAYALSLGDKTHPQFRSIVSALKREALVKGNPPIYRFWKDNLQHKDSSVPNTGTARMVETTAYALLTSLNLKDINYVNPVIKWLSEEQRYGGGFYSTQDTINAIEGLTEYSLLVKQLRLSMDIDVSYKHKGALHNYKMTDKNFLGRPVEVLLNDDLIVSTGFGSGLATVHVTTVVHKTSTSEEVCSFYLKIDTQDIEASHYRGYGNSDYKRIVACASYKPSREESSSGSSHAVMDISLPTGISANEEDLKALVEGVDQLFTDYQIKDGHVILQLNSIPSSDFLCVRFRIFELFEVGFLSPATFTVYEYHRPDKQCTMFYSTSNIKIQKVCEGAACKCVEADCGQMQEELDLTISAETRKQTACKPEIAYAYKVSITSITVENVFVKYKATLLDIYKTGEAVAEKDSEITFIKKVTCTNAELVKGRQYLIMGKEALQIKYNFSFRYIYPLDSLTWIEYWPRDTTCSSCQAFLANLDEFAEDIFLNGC

[3] = target: Complement component C6 (human)
Chain of Complement component C6 (human) (chain, as listed by the source): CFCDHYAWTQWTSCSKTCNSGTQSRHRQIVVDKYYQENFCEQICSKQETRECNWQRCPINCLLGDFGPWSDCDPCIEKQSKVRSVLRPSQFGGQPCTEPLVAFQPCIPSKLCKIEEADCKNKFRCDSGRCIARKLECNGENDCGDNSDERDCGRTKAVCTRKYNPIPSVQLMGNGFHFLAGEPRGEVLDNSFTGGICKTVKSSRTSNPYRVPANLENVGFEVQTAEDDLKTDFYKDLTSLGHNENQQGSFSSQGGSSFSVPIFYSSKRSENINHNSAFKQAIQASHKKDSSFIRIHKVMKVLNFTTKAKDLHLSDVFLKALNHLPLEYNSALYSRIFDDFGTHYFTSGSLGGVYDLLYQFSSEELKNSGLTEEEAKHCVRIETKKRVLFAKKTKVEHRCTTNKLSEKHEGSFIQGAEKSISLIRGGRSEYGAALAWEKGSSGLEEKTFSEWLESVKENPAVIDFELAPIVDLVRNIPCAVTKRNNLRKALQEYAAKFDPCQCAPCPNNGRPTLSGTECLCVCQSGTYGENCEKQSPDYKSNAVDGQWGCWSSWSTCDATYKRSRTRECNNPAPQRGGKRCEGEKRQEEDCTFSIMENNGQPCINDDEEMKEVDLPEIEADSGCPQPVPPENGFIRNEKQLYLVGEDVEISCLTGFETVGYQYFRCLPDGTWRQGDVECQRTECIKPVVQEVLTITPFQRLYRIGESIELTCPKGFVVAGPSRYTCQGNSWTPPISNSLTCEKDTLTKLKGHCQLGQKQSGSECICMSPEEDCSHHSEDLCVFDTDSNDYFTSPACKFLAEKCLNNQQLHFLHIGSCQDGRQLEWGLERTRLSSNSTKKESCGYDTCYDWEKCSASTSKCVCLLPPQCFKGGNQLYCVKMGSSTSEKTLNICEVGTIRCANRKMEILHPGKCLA

[4] = target: Complement C3 (human)
[5] = target: Complement component C9 (human)
Chain of Complement component C9 (human) (chain, as listed by the source): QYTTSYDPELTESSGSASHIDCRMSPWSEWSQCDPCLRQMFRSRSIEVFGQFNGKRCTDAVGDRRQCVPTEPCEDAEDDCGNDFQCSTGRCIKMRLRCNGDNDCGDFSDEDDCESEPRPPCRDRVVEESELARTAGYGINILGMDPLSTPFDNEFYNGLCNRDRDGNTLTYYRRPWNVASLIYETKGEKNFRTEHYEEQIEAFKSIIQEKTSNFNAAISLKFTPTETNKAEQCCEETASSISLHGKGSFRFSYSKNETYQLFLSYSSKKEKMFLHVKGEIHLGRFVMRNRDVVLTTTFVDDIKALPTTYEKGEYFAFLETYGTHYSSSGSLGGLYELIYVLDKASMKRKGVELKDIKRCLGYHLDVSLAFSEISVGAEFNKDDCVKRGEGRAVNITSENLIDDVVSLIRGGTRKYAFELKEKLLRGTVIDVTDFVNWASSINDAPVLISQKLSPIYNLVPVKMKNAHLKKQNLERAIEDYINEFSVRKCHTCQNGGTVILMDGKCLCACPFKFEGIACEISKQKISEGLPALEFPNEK

[6] = target: T2, rat complement C2 (in plasma of treated rats), Q8CIP8
T2 chain: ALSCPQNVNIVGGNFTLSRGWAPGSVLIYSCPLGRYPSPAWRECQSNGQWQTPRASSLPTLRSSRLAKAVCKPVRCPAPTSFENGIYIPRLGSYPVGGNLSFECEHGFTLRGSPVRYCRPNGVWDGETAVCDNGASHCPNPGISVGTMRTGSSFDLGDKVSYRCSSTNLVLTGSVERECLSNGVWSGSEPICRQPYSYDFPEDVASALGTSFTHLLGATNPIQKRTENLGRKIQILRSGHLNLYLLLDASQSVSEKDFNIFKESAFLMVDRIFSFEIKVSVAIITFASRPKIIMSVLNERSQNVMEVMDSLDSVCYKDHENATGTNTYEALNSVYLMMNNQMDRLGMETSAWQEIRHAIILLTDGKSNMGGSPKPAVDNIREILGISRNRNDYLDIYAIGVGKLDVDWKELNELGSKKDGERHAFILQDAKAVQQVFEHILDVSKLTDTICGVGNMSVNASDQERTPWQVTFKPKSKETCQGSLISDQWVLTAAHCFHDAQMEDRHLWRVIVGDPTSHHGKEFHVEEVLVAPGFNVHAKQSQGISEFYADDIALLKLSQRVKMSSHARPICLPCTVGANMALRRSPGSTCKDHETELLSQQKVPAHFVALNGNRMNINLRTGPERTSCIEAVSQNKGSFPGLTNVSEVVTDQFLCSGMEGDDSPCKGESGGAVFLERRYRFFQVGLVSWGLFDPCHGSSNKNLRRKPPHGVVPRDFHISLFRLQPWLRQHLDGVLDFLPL

B1: modified MT-SP1 CB252 (Y146E/K224N) protease domain (protein)
chain: VVGGTDADEGEWPWQVSLHALGQGHICGASLISPNWLVSAAHCYIDDRGFRYSDPTQWTAFLGLHDQSQRSAPGVQERRLKRIISHPFFNDFTFDYDIALLELEKPAEYSSMVRPICLPDASHVFPAGKAIWVTGWGHTQEGGTGALILQKGEIRVINQTTCENLLPQQITPRMMCVGFLSGGVDSCQGDSGGPLSSVEADGRIFQAGVVSWGDGCAQRNNPGVYTRLPLFRDWIKENTGV
For B1, which “C2 Western blot of plasma from monkeys dosed IV with 1 or 3 mg/kg protease” value [1] is on record?
The value was “increased cleavage of C2 in plasma from CB252 and CB377 treated monkeys after treatment with 3 mg/kg protease but not after treatment with 1 mg/kg protease ... a greater cleavage of C2 occurred in plasma collected form CB252 treated monkeys as compared to CB377 treated monkeys at all time points tes”.

What about the “C2 Western blot of plasma from monkeys dosed with 1 mg/kg CB252 IV” value [1] of the same protein?
Its value is “Plasma from monkeys treated with 1 mg/kg CB252 had no discernable C2 cleavage”.

What about the “average extent of degradation of C2 (densitometry of C2 Western blots), 5 minutes after 3 mg/kg CB252 IV” value [1] of the same protein?
Its value is 60% degraded at 5 minutes.

And the “average extent of degradation of C2 (densitometry of C2 Western blots), 30 minutes after 3 mg/kg CB252 IV” value [1]?
Its value is 50% degraded at 30 minutes.

What about the “average extent of degradation of C2 (densitometry of C2 Western blots), 60 minutes after 3 mg/kg CB252 IV” value [1] of the same protein?
The value was 40% degraded at 60 minutes.

And the “percent C2 cleavage (Western blot densitometry), plasma of animal 2, 5 minutes after 3 mg/kg CB252 IV” value [1]?
The value was 62%.

And the “percent C2 cleavage (Western blot densitometry), plasma of animal 2, 30 minutes after 3 mg/kg CB252 IV” value [1]?
Its value is 55%.

What about the “percent C2 cleavage (Western blot densitometry), plasma of animal 2, 60 minutes after 3 mg/kg CB252 IV” value [1] of the same protein?
The value was 50%.

And the “percent C2 cleavage (Western blot densitometry), plasma of animal 4, 5 minutes after 3 mg/kg CB252 IV” value [1]?
The value was 55%.

What about the “percent C2 cleavage (Western blot densitometry), plasma of animal 4, 30 minutes after 3 mg/kg CB252 IV” value [1] of the same protein?
Its value is 45%.

And the “percent C2 cleavage (Western blot densitometry), plasma of animal 4, 60 minutes after 3 mg/kg CB252 IV” value [1]?
The value was 37%.

And the “percent C2 cleavage (Western blot densitometry), plasma of animal 5, 5 minutes after 3 mg/kg CB252 IV” value [1]?
The value was 65%.

What about the “percent C2 cleavage (Western blot densitometry), plasma of animal 5, 30 minutes after 3 mg/kg CB252 IV” value [1] of the same protein?
Its value is 50%.

What about the “percent C2 cleavage (Western blot densitometry), plasma of animal 5, 60 minutes after 3 mg/kg CB252 IV” value [1] of the same protein?
The value was 38%.

And the “hemolysis (OD415) by protease-preincubated purified complement protein added back to the corresponding depleted sera” value (“hemolysis (OD415)” below) [2]?
The value was “showed no decreased hemolysis as compared to normal sera or the no protease control”.

What about the “hemolysis (OD415)” value [3] of the same protein?
The value was “showed no decreased hemolysis as compared to normal sera or the no protease control”.

And the “cleavage in 90% human plasma by Western blot” value [4]?
Its value is “none of the tested proteases cleaved C3 in human plasma as compared to the no protease control even at the highest concentration of protease (2000 nM)”.

What about the “hemolysis (OD415)” value [4] of the same protein?
The value was “showed no decreased hemolysis as compared to normal sera or the no protease control”.

What about the “hemolysis (OD415)” value [5] of the same protein?
Its value is “showed no decreased hemolysis as compared to normal sera or the no protease control”.

What about the “C2 Western blot of plasma from rats dosed IV with the protease” value [6] of the same protein?
The value was “CB252 showed a greater cleavage of C2 as there was little detectable C2 present in the plasma samples as assessed by Western Blot even after only 5 minutes following injection, with no detectable C2 present at 60 or 120 minutes after injection”.

B2: modified MT-SP1 CB377 (Y146E/Q175D/K224N) protease domain (protein)
chain: VVGGTDADEGEWPWQVSLHALGQGHICGASLISPNWLVSAAHCYIDDRGFRYSDPTQWTAFLGLHDQSQRSAPGVQERRLKRIISHPFFNDFTFDYDIALLELEKPAEYSSMVRPICLPDASHVFPAGKAIWVTGWGHTQEGGTGALILQKGEIRVINQTTCENLLPQDITPRMMCVGFLSGGVDSCQGDSGGPLSSVEADGRIFQAGVVSWGDGCAQRNNPGVYTRLPLFRDWIKENTGV
How did the “C2 Western blot of plasma from monkeys dosed IV with 1 or 3 mg/kg protease” value [1] turn out when B2 was run?
The value was “increased cleavage of C2 in plasma from CB252 and CB377 treated monkeys after treatment with 3 mg/kg protease but not after treatment with 1 mg/kg protease”.

What about the “hemolysis (OD415)” value [2] of the same protein?
Its value is “showed no decreased hemolysis as compared to normal sera or the no protease control”.

What about the “hemolysis (OD415)” value [3] of the same protein?
The value was “showed no decreased hemolysis as compared to normal sera or the no protease control”.

And the “cleavage in 90% human plasma by Western blot” value [4]?
Its value is “none of the tested proteases cleaved C3 in human plasma as compared to the no protease control even at the highest concentration of protease (2000 nM)”.

And the “hemolysis (OD415)” value [4]?
The value was “showed no decreased hemolysis as compared to normal sera or the no protease control”.

And the “hemolysis (OD415)” value [5]?
Its value is “showed no decreased hemolysis as compared to normal sera or the no protease control”.

What about the “C2 Western blot of plasma from rats dosed IV with the protease” value [6] of the same protein?
Its value is “CB377 also showed diminished C2 levels as compared to vehicle control at early time points, however, by 60 minutes and 120 minutes the levels of C2 were comparable to those from vehicle control samples”.
